Data taken from FireProtDB (doi:10.1016/s0006-3495(99)76955-9).

B1: Azurin, P00282 (parent)
chain: MLRKLAAVSLLSLLSAPLLAAECSVDIQGNDQMQFNTNAITVDKSCKQFTVNLSHPGNLPKNVMGHNWVLSTAADMQGVVTDGMASGLDKDYLKPDDSRVIAHTKLIGSGEKDSVTFDVSKLKEGEQYMFFCTFPGHSALMKGTLTLK

Variants of: B1
Conditions: Pseudomonas aeruginosa (strain ATCC 15692 / DSM 22644 / CIP 104116 / JCM 14847 / LMG 12228 / 1C / PRS 101 / PAO1); pH 7.03; 20 °C; Thermal; DSC; phosphate buffer 10 mM; sodium chloride 40 microM; reversible: no; structure 5AZU; whole UniProt chain shown

| Variant | unfolding enthalpy (calorimetric) [kcal/mol] | unfolding free energy [kcal/mol] |
| --- | --- | --- |
| MLRKLAAVSLLSLLSAPLLAAEASVDIQGNDQMQFNTNAITVDKSAKQFTVNLSHPGNLPKNVMGHNWVLSTAADMQGVVTDGMASGLDKDYLKPDDSRVIAHTKLIGSGEKDSVTFDVSKLKEGEQYMFFCTFPGHSALMKGTLTLK [C23A C46A] | 16 | 7.79 |
